Test results published in article PMC9482650, “Quantitative fragmentomics allow affinity mapping of interactomes” (Nature Communications, 2022).

T1: APBA1_1, Q02410
T1 sequence (Q02410 651-752, limits assumed, looked up): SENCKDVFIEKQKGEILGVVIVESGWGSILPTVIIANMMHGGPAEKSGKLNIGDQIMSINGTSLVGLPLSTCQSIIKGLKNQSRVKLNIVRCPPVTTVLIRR

T2: APBA1_2, Q02410
T2 sequence (Q02410 742-832, limits assumed, looked up): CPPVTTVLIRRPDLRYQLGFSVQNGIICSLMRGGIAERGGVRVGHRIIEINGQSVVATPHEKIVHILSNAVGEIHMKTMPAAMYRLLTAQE

T3: GRIP1_2, Q9Y3R0
T3 sequence (Q9Y3R0 145-248, limits assumed, looked up): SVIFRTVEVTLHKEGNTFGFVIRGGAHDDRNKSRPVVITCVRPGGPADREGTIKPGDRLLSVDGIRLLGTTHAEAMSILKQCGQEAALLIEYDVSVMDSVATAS

T4: GRIP1_3, Q9Y3R0
T4 sequence (Q9Y3R0 247-346, limits assumed, looked up): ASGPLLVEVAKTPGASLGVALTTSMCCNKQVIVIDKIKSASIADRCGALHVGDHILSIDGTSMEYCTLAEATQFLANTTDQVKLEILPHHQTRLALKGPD

T5: GRIP1_4, Q9Y3R0
T5 sequence (Q9Y3R0 467-571, limits assumed, looked up): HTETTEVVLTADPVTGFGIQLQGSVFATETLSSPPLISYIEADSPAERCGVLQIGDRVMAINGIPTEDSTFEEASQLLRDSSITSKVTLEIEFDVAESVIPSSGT

T6: HTRA4, P83105
T6 sequence (P83105 378-476, limits assumed, looked up): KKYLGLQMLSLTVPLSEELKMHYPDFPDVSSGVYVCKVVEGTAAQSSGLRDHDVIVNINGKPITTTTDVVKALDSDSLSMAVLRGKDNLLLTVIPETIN

T7: LIN7A, O14910
T7 sequence (O14910 103-200, limits assumed, looked up): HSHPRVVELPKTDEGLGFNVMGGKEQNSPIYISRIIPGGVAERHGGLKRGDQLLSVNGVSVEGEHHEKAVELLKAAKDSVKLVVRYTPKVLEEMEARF

T8: LRRC7, Q96NW7
T8 sequence (Q96NW7 1440-1537, limits assumed, looked up): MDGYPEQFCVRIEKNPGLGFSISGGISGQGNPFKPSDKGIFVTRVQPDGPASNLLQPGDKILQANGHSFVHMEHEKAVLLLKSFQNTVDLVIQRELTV

T9: PARD3B_1, Q8TEW8
T9 sequence (Q8TEW8 196-299, limits assumed, looked up): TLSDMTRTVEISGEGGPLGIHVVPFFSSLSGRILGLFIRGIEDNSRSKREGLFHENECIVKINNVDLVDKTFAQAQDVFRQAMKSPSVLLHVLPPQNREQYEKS

T10: PCLO, Q9Y6V0
T10 sequence (Q9Y6V0 4491-4600, limits assumed, looked up): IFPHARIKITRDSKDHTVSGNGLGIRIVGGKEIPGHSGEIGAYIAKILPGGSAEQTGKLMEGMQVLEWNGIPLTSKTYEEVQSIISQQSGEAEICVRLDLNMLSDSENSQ

T11: TIAM2, Q8IVF5
T11 sequence (Q8IVF5 885-986, limits assumed, looked up): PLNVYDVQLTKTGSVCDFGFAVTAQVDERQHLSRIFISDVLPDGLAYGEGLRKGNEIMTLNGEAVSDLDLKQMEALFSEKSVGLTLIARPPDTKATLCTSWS


The binders below were run against T1, APBA1_1, Q02410 (assay: holdup assay). Settings: plain residues with an end cap or a label only (N-terminal biotin on a linker: ado-ado).
Set-up: key: below the threshold = too weak to quantify, mostly under pKd 3.1 to 4

Binder | pKd
TNSRHGETTV [FZD2, Q14332] | below the threshold

The binders below were run against T2, APBA1_2, Q02410 (assay: holdup assay). Settings: plain residues with an end cap or a label only (N-terminal biotin on a linker: ado-ado).
Set-up: key: below the threshold = too weak to quantify, mostly under pKd 3.1 to 4

Binder | pKd
TNSRHGETTV [FZD2, Q14332] | 3.71

Each binder was assayed against ARHGEF12, Q9NZN5-2 (assay: holdup assay). Settings: plain residues with an end cap or a label only (N-terminal biotin on a linker: ado-ado).
Sequence of ARHGEF12, Q9NZN5-2 (Q9NZN5 other isoform, or with tags, fused parts or gaps): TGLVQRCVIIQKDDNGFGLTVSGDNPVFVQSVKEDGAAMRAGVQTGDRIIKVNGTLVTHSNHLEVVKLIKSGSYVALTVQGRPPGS
Set-up: key: below the threshold = too weak to quantify, mostly under pKd 3.1 to 4

Binder | pKd
TNSRHGETTV [FZD2, Q14332] | 3.57

Each binder was assayed against DLG2_2, Q15700 (assay: holdup assay). Settings: plain residues with an end cap or a label only (N-terminal biotin on a linker: ado-ado).
Sequence of DLG2_2, Q15700 (Q15700 189-283): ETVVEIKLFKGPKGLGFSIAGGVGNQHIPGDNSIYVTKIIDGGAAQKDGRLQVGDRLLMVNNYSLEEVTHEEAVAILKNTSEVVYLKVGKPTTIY
Set-up: key: below the threshold = too weak to quantify, mostly under pKd 3.1 to 4

Binder | pKd
TNSRHGETTV [FZD2, Q14332] | 4.81

The binders below were run against DLG5_1, Q8TDM6 (assay: holdup assay). Settings: plain residues with an end cap or a label only (N-terminal biotin on a linker: ado-ado).
Sequence of DLG5_1, Q8TDM6 (Q8TDM6 617-713): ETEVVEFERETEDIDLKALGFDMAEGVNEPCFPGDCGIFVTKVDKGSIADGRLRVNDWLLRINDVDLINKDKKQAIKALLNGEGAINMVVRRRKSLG
Set-up: key: below the threshold = too weak to quantify, mostly under pKd 3.1 to 4

Binder | pKd
TNSRHGETTV [FZD2, Q14332] | 3.48

What follows are binders tested against FRMPD2_2, Q68DX3 (assay: holdup assay). Settings: plain residues with an end cap or a label only (N-terminal biotin on a linker: ado-ado).
Sequence of FRMPD2_2, Q68DX3 (Q68DX3 944-1038): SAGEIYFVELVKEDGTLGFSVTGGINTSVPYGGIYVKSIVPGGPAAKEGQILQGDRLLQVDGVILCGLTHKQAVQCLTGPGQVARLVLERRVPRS
Set-up: key: below the threshold = too weak to quantify, mostly under pKd 3.1 to 4

Binder | pKd
TNSRHGETTV [FZD2, Q14332] | 3.54

These binders were tested against GOPC, Q9HD26 (assay: holdup assay). Settings: plain residues with an end cap or a label only (N-terminal biotin on a linker: ado-ado).
Set-up: key: below the threshold = too weak to quantify, mostly under pKd 3.1 to 4

Binder | pKd
TNSRHGETTV [FZD2, Q14332] | 3.88

These binders were tested against T3, GRIP1_2, Q9Y3R0 (assay: holdup assay). Settings: plain residues with an end cap or a label only (N-terminal biotin on a linker: ado-ado).
Set-up: key: below the threshold = too weak to quantify, mostly under pKd 3.1 to 4

Binder | pKd
TNSRHGETTV [FZD2, Q14332] | below the threshold

These binders were tested against T4, GRIP1_3, Q9Y3R0 (assay: holdup assay). Settings: plain residues with an end cap or a label only (N-terminal biotin on a linker: ado-ado).
Set-up: key: below the threshold = too weak to quantify, mostly under pKd 3.1 to 4

Binder | pKd
TNSRHGETTV [FZD2, Q14332] | below the threshold

These binders were tested against T5, GRIP1_4, Q9Y3R0 (assay: holdup assay). Settings: plain residues with an end cap or a label only (N-terminal biotin on a linker: ado-ado).
Set-up: key: below the threshold = too weak to quantify, mostly under pKd 3.1 to 4

Binder | pKd
TNSRHGETTV [FZD2, Q14332] | below the threshold

The binders below were run against GRIP2_3, Q9C0E4 (assay: holdup assay). Settings: plain residues with an end cap or a label only (N-terminal biotin on a linker: ado-ado).
Sequence of GRIP2_3, Q9C0E4 (Q9C0E4 238-339): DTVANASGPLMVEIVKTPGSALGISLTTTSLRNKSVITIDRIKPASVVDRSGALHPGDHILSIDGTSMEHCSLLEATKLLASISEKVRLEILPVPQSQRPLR
Set-up: key: below the threshold = too weak to quantify, mostly under pKd 3.1 to 4

Binder | pKd
TNSRHGETTV [FZD2, Q14332] | below the threshold

What follows are binders tested against T6, HTRA4, P83105 (assay: holdup assay). Settings: plain residues with an end cap or a label only (N-terminal biotin on a linker: ado-ado).
Set-up: key: below the threshold = too weak to quantify, mostly under pKd 3.1 to 4

Binder | pKd
TNSRHGETTV [FZD2, Q14332] | below the threshold

These binders were tested against Inadl_2, Q8NI35 (assay: holdup assay). Settings: plain residues with an end cap or a label only (N-terminal biotin on a linker: ado-ado).
Sequence of Inadl_2, Q8NI35 (Q8NI35 238-335): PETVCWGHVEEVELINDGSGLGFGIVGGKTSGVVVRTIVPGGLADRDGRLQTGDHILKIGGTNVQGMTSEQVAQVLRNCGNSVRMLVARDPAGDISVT
Set-up: key: below the threshold = too weak to quantify, mostly under pKd 3.1 to 4

Binder | pKd
TNSRHGETTV [FZD2, Q14332] | below the threshold

What follows are binders tested against Inadl_8, Q8NI35 (assay: holdup assay). Settings: plain residues with an end cap or a label only (N-terminal biotin on a linker: ado-ado).
Sequence of Inadl_8, Q8NI35 (Q8NI35 1425-1530): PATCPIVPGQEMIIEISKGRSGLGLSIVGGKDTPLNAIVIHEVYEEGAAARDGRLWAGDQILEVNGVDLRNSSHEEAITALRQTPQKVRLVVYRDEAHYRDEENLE
Set-up: key: below the threshold = too weak to quantify, mostly under pKd 3.1 to 4

Binder | pKd
TNSRHGETTV [FZD2, Q14332] | 3.57

These binders were tested against Inadl_9, Q8NI35 (assay: holdup assay). Settings: plain residues with an end cap or a label only (N-terminal biotin on a linker: ado-ado).
Sequence of Inadl_9, Q8NI35 (Q8NI35 1530-1615): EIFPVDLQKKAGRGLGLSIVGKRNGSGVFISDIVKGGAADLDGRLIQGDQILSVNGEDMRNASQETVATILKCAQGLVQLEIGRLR
Set-up: key: below the threshold = too weak to quantify, mostly under pKd 3.1 to 4

Binder | pKd
TNSRHGETTV [FZD2, Q14332] | 3.74

What follows are binders tested against T7, LIN7A, O14910 (assay: holdup assay). Settings: plain residues with an end cap or a label only (N-terminal biotin on a linker: ado-ado).
Set-up: key: below the threshold = too weak to quantify, mostly under pKd 3.1 to 4

Binder | pKd
TNSRHGETTV [FZD2, Q14332] | 3.85

These binders were tested against T8, LRRC7, Q96NW7 (assay: holdup assay). Settings: plain residues with an end cap or a label only (N-terminal biotin on a linker: ado-ado).
Set-up: key: below the threshold = too weak to quantify, mostly under pKd 3.1 to 4

Binder | pKd
TNSRHGETTV [FZD2, Q14332] | below the threshold

The binders below were run against MAGI2_2, Q86UL8 (assay: holdup assay). Settings: plain residues with an end cap or a label only (N-terminal biotin on a linker: ado-ado).
Sequence of MAGI2_2, Q86UL8 (Q86UL8 410-522): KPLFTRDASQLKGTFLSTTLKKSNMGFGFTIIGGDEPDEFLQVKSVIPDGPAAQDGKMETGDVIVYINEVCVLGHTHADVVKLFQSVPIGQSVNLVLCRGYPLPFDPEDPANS
Set-up: key: below the threshold = too weak to quantify, mostly under pKd 3.1 to 4

Binder | pKd
TNSRHGETTV [FZD2, Q14332] | 4.59

These binders were tested against NHERF2_2, Q15599 (assay: holdup assay). Settings: plain residues with an end cap or a label only (N-terminal biotin on a linker: ado-ado).
Sequence of NHERF2_2, Q15599 (Q15599 142-238): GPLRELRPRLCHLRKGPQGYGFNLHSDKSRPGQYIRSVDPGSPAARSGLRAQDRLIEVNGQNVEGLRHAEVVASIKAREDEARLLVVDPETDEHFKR
Set-up: key: below the threshold = too weak to quantify, mostly under pKd 3.1 to 4

Binder | pKd
TNSRHGETTV [FZD2, Q14332] | below the threshold

Each binder was assayed against NOS1, P29475 (assay: holdup assay). Settings: plain residues with an end cap or a label only (N-terminal biotin on a linker: ado-ado).
Sequence of NOS1, P29475 (P29475 9-101): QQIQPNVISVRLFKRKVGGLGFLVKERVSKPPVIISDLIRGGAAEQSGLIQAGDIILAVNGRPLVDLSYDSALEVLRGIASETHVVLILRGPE
Set-up: key: below the threshold = too weak to quantify, mostly under pKd 3.1 to 4

Binder | pKd
TNSRHGETTV [FZD2, Q14332] | 3.79

What follows are binders tested against T9, PARD3B_1, Q8TEW8 (assay: holdup assay). Settings: plain residues with an end cap or a label only (N-terminal biotin on a linker: ado-ado).
Set-up: key: below the threshold = too weak to quantify, mostly under pKd 3.1 to 4

Binder | pKd
TNSRHGETTV [FZD2, Q14332] | below the threshold

Each binder was assayed against PARD3_3, Q8TEW0 (assay: holdup assay). Settings: plain residues with an end cap or a label only (N-terminal biotin on a linker: ado-ado).
Sequence of PARD3_3, Q8TEW0 (Q8TEW0 582-685): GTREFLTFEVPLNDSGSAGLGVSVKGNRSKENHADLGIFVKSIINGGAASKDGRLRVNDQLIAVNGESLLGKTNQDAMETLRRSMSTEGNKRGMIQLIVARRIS
Set-up: key: below the threshold = too weak to quantify, mostly under pKd 3.1 to 4

Binder | pKd
TNSRHGETTV [FZD2, Q14332] | below the threshold

These binders were tested against T10, PCLO, Q9Y6V0 (assay: holdup assay). Settings: plain residues with an end cap or a label only (N-terminal biotin on a linker: ado-ado).
Set-up: key: below the threshold = too weak to quantify, mostly under pKd 3.1 to 4

Binder | pKd
TNSRHGETTV [FZD2, Q14332] | below the threshold

These binders were tested against PDZRN4_1, Q6ZMN7 (assay: holdup assay). Settings: plain residues with an end cap or a label only (N-terminal biotin on a linker: ado-ado).
Sequence of PDZRN4_1, Q6ZMN7 (Q6ZMN7 213-318): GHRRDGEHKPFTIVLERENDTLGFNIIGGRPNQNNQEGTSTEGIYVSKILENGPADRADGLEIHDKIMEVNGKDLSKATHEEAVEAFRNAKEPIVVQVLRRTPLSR
Set-up: key: below the threshold = too weak to quantify, mostly under pKd 3.1 to 4

Binder | pKd
TNSRHGETTV [FZD2, Q14332] | 4.18

These binders were tested against PICK1, Q9NRD5 (assay: holdup assay). Settings: plain residues with an end cap or a label only (N-terminal biotin on a linker: ado-ado).
Sequence of PICK1, Q9NRD5 (Q9NRD5 17-115): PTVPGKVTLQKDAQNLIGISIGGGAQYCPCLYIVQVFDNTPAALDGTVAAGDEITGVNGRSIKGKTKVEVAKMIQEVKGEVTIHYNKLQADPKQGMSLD
Set-up: key: below the threshold = too weak to quantify, mostly under pKd 3.1 to 4

Binder | pKd
TNSRHGETTV [FZD2, Q14332] | below the threshold

What follows are binders tested against T11, TIAM2, Q8IVF5 (assay: holdup assay). Settings: plain residues with an end cap or a label only (N-terminal biotin on a linker: ado-ado).
Set-up: key: below the threshold = too weak to quantify, mostly under pKd 3.1 to 4

Binder | pKd
TNSRHGETTV [FZD2, Q14332] | below the threshold
